Measurements as given in US20070178531A1 (BIOCHECK, published 2007).

T1: human Id3 protein (human, UniProt Q02535 1-119 at identity 1.00))
T1 chain: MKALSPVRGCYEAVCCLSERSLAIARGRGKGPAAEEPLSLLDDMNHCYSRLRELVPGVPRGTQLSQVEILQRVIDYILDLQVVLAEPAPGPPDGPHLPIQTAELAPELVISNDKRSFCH

T2: mouse Id3 protein (mouse, UniProt P41133 1-119)
T2 sequence: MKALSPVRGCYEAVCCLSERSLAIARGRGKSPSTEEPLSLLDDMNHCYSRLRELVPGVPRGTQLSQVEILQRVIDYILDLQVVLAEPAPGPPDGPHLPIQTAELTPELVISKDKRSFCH

T3: Human Id2: Histidine (human, UniProt Q02363 1-134, limits assumed)
T3 construct: Fusion protein made in E. coli from vector pGW07; also called h-Id2: His; not shown: His tag
T3 sequence (looked up): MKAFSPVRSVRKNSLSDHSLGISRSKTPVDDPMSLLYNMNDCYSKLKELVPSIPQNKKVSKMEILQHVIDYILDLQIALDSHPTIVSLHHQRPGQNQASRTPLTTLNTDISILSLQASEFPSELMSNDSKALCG

T4: Human Id1: Histidine (human, UniProt P41134 1-155, limits assumed)
T4 construct: Fusion protein made in E. coli from vector pGW07; also called h-Id1: his; not shown: His tag
T4 sequence (looked up): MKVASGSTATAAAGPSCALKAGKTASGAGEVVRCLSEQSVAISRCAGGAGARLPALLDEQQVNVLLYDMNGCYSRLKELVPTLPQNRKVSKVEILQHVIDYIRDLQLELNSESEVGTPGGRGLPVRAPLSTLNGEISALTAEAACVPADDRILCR

T5: Mouse Id3: Histidine (mouse, UniProt P41133 1-119)
T5 construct: Fusion protein made in E. coli from vector pGW07; also called m-Id3: His; Mouse Id3 (coated wells); not shown: His tag
T5 sequence: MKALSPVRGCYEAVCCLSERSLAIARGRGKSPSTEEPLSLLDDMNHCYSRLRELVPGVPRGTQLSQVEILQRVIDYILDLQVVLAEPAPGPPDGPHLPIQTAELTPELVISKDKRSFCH


Experiments:
[1] = target: T1, human Id3 protein; test: SPR (BIACORE 2000), antibody immobilized on CM5, Id3 as analyte, 1:1 Langmuir
Procedure: (§1) Antibodies were immobilized on CM5 sensor chips. All SPR (surface plasmon resonance) assays were carried out in a BIACORE 2000 instrument. A mouse monoclonal antibody was used as reference labeled at the 2nd channel (Fc2) of the chip. Rabbit monoclonal anti-human Id3 (BCH-4/#3-3) or Rabbit monoclonal anti-mouse/human Id3 (BCH-4/#6-1, #16-1 and #17-3) was immobilized on the 4th (Fc4) channel. Final conjugation of antibodies on chip surface was 1878 RU for BCH-4#3-3, BCH-4/#6-1, BCH-4/#16-1, or BCH-3/#17-3. Mouse Id-3 and human Id-3 were applied as mobile analytes. The binding assays were carried out in HBS-P buffer (10 mM HEPES, pH 7.4, containing 150 mM sodium chloride, 0.005% surfactant P-20 detergent and 0.12% glycerol). Kinetics were determined with 8 different analyte concentrations ranging from 3.4 nM to 573 nM. For analyses, 125 μl of analyte were injected (Kinject protocol) at 30 μl/min and the dissociation lasted for 240 seconds at the same flow rate. The surface was regenerated by washing with 50 μl solution of 100 mM glycine and 100 mM of HCl, pH 1.81, at 60 μl/min and the extra cleaning protocol was followed. The kinetic analyses of sensograms were based on the Langmuir (1:1) binding model. Both association rate constant and dissociation rate constants for the interaction of mouse Id-3 and human Id-3 with the immobilized antibodies were determined from the analysis of sensograms using the Biaevaluation software, version 3.0. All binding curves were corrected for background and bulk refractive index contribution by subtraction of the reference flow cells. Models were fitted globally across the data sets. All experiments and analyses were duplicated.

[2] = target: T2, mouse Id3 protein; test: as above
Procedure: as §1

[3] = target: T6, glutathione S-transferase (GST) (UniProt P08515 1-218 = GST); test: ELISA, Ab 0.010 µg/ml
T6 construct: also called carrier protein GST

[4] = target: T3, Human Id2: Histidine; test: ELISA, Ab 0.100 µg/ml
Procedure: (§2) The rabbit monoclonal anti-human Id3 (clone #3-3) and the rabbit monoclonal anti-mouse/human Id3 (clones #6-1, 16-1, 17-3, and 42-1) produced in Example 6 were tested reactivity against the following antigens: mouse Id1:His, human Id1:His, mouse Id2:His, human Id2:His, mouse Id3:His, human Id3:His, mouse Id4:His, human Id4:His and GST.
(§3) 1. Microtiter wells (prepared in accordance with Example 6) were coated (0.1 μg/well) with mouse Id1:His, human Id1:His, human Id2:His, human Id3:His, and 1.0 μg/well with GST. [0155] 2. Antibody Diluent: 0.25% (w/v) BSA in 0.015M KPO₄ Buffer, 0.85% (w/v) NaCl, 0.1% (w/v) NaN₃, pH=7.40 [0156] 3. Rabbit monoclonal anti-human Id3 (clone #3-3) prepared in Example 7 was diluted to […] with the antibody diluent. […] 4. Rabbit monoclonal anti-mouse/human Id3 (clones #6-1, 16-1, 17-3, 42-1) prepared in Example 7 was diluted to 0.005, 0.010, 0.025, 0.05, 0.10, 0.25, and 0.50 μg/ml with the antibody diluent. […] 5. Conjugate Diluent: 50% (v/v) which consists of an aqueous solution containing Fetal Bovine Serum in 0.05 M Tris, 1% (v/v) Proclin-300, pH 7.6. [0159] 6. Conjugate: Goat anti-rabbit IgG (H+L)-HRP conjugate. [0160] 7. TMB reagent. […] 8. Stop solution (1 N HCI). Method
(§4) 1. Dispense 100 μL of antibody diluent, diluted rabbit monoclonal human Id3, and mouse/human Id3 hybridoma supernatants into appropriate wells. […] 2. Incubate at room temperature with mechanical shaking at 750 rpm for 90 minutes. [0165] 3. Remove the incubation mixture by flicking plate content into an appropriate waste container followed by rinsing the wells 5 times with distilled water. [0166] 4. Strike the wells sharply onto absorbent paper or paper towels to remove all residual water droplets. [0167] 5. Dispense 100 μL of 1:50,000 Goat Anti-Rabbit IgG-HRP Conjugate Reagent into each well. Gently mix for 5 seconds. [0168] 6. Incubate at room temperature with mechanical shaking at 750 rpm for 90 minutes. [0169] 7. Repeat procedures 3 and 4. [0170] 8. Dispense 100 μL of TMB Reagent into each well. Gently mix for 5 seconds. [0171] 9. Incubate at room temperature with mechanical shaking at 750 rpm for 20 minutes. […] 10.

[5] = target: T4, Human Id1: Histidine; test: ELISA, Ab 0.100 µg/ml
Procedure: as §2, §3, §4

[6] = target: T5, Mouse Id3: Histidine; test: ELISA, Ab 0.100 µg/ml
Procedure: as §2, §3, §4

T6 sequence (P08515 whole entry): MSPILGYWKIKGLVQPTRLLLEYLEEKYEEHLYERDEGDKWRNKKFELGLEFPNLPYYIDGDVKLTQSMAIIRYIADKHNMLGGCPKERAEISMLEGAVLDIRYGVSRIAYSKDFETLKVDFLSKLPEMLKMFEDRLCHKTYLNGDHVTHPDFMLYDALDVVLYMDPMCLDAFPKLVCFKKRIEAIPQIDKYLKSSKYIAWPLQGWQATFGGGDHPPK

| Binder | Ka [1] [M⁻¹] | Ka [2] [M⁻¹] | A450 [3] [A450] | A450 [4] [A450] | A450 [5] [A450] | A450 [6] [A450] |
| --- | --- | --- | --- | --- | --- | --- |
| rabbit monoclonal anti-mouse/human Id3, clone #BCH-4/#16-1 (antibody, V domains shown, Rabbit IgG from a rabbit hybridoma; also called m/h Id3 MoAb 16-1) VH: QSVEESGGRLVTPGTPLTLTCTASGFSLSSYYIHWVRQAPGKALEWIGYISDGGTTYYASWAKGRFTISKTSSTTVDLKMTSLTTEDTATYFCARQGFNIWGPGTLVTVSL VL: AVLTQTPSPVSAAVGGTVTISCQSSQSVYNNNWLSWFQQKSGQPPKLLIYETSKLESGVPSRFKGSGSGTQFTLTIIDVQCDDAATYYCLGGYWTTSDNNIFGGGTEVVVK | 1.89e+11 | 2.42e+09 | 0.046 | 0.048 | 0.047 | 2.28 |
| rabbit monoclonal anti-mouse/human Id3, clone #BCH-4/#17-3 (antibody, V domains shown, Rabbit IgG from a rabbit hybridoma; also called m/h Id3 MoAb 17-3; BCH-3/#17-3) VH: QSVEESGGRLVTPGTPLTLTCTASGFSLSNVYIHWVRQAPGKGLEWIGYISDGDTARYATWAKGRFTISKTSSTTVNLKMTSLTTEDTATYFCARQGFNIWGPGTLVTVSL VL: AVLTQTPSPVSAAVGGTVSISCQSSQSVWNNNWLSWFQQKPGQPPKLLIYETSKLESGVPSRFKGSGSGTQFTLTISDVQCDDAATYYCLGGYWTTSDNNVFGGGTEVVVK | 7.35e+10 | 3.32e+11 | 0.046 | 0.048 | 0.048 | 2.91 |
| rabbit monoclonal anti-mouse/human Id3, clone #BCH-4/#6-1 (antibody, V domains shown, Rabbit IgG from a rabbit hybridoma; also called m/h Id3 MoAb 6-1) VH: QSVEESGGRLVTPGTPLTLTCTASGFSLSNVYIHWVRQAPGKGLEWIGYISDGDTARYATWAKGRFTISKTSSTTVNLKMTSLTTEDTATYFCARQGFNIWGPGTLVTVSL VL: AVLTQTPSPVSAAVGGTVSISCQSSQSVWNNNWLSWFQQKPGQPPKLLIYETSKLESGVPSRFKGSGSGTQFTLTISDVQCDDAATYYCLGGYWTTSDNNVFGGGTEVVVK | 4.13e+11 | 5.26e+08 | 0.046 | 0.049 | 0.049 | 2.56 |
| rabbit monoclonal anti-mouse/human Id3, clone #BCH-4/#42-1 (antibody, V domains shown, Rabbit IgG from a rabbit hybridoma; also called m/h Id3 MoAb 42-1) VH: QSVEESGGRLVTPGTPLTLTCTASGFSLSSYYIHWVRQAPGKALEWIGYISDGGTTYYASWAKGRFTISKTSSTTVDLKMTSLTTEDTATYFCARQGFNIWGPGTLVTVSL VL: AVLTQTPSPVSAAVGGTVTISCQSSQSVYNNNWLSWFQQKSGQPPKLLIYETSKLESGVPSRFKGSGSGTQFTLTIIDVQCDDAATYYCLGGYWSTSDNNIFGGGTEVVVK | – | – | 0.045 | 0.046 | 0.047 | 2.87 |
| rabbit monoclonal anti-human Id3, clone #BCH-4/#3-3 (antibody, V domains shown, Rabbit IgG from a rabbit hybridoma; also called h Id3 MoAb 3-3) VH: QSVEESGGRLVTPGTPLTLTCTVSGIDLSSYAMSWVRQAPGKGLEWIGVIFPSNNVYYASWAKGRFTISKTSTTVDLKITSPTTEDTATYFCASMGAFDSWGPGTLVTVSS VL: QVLTQTPSPVSAAVGGTVTINCQASQSIYNDNDLAWFQQKPGQPPKLLIYDASTLTSGVPSRFKGSGSGTQFTLTISDLDCDDAATYYCAARYSGNIYGFGGGTEVVVK | – | – | 0.045 | 0.048 | 0.047 | – |
